Measurements: IntAct's records for PubMed 19274086

B1: Serine/threonine-protein kinase STK11 (Mus musculus), Q9WTK7 (parent)
chain: MDVADPEPLGLFSEGELMSVGMDTFIHRIDSTEVIYQPRRKRAKLIGKYLMGDLLGEGSYGKVKEVLDSETLCRRAVKILKKKKLRRIPNGEANVKKEIQLLRRLRHRNVIQLVDVLYNEEKQKMYMVMEYCVCGMQEMLDSVPEKRFPVCQAHGYFRQLIDGLEYLHSQGIVHKDIKPGNLLLTTNGTLKISDLGVAEALHPFAVDDTCRTSQGSPAFQPPEIANGLDTFSGFKVDIWSAGVTLYNITTGLYPFEGDNIYKLFENIGRGDFTIPCDCGPPLSDLLRGMLEYEPAKRFSIRQIRQHSWFRKKHPLAEALVPIPPSPDTKDRWRSMTVVPYLEDLHGRAEEEEEEDLFDIEDGIIYTQDFTVPGQVLEEEVGQNGQSHSLPKAVCVNGTEPQLSSKVKPEGRPGTANPARKVCSSNKIRRLSACKQQ

Variants of: B1
Conditions: with aapk2_human PRKAA2, P54646
Sequence of aapk2_human PRKAA2, P54646 (P54646 whole entry, looked up): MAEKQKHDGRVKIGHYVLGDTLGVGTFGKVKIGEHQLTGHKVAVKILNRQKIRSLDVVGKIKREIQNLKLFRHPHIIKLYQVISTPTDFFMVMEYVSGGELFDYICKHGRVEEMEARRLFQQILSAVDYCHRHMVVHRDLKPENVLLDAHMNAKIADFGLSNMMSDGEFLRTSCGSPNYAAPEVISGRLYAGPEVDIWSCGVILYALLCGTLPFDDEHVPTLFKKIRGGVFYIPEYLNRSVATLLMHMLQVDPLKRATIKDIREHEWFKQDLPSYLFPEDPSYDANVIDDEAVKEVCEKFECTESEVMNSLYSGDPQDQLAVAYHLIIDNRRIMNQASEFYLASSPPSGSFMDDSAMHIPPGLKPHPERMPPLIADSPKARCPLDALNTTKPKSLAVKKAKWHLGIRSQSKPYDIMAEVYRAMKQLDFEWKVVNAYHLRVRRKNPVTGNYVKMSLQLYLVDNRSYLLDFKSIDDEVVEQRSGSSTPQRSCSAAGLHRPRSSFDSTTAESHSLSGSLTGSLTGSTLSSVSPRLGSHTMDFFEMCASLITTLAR

Question: With S431D as the variant, how does the “effect of a mutation on the interaction” value read?
Answer: Its value is “decreasing interaction strength”.

Question: Which “effect of a mutation on the interaction” value does the source give for S431A here?
Answer: Its value is “decreasing interaction strength”.

Question: With D194A as the variant, how does the “effect of a mutation on the interaction” value read?
Answer: Its value is “disrupting interaction strength”.
